The target in assay [1] is T1, CCR1 (Homo sapiens, UniProt P32246).
T1 sequence (P32246 1-355): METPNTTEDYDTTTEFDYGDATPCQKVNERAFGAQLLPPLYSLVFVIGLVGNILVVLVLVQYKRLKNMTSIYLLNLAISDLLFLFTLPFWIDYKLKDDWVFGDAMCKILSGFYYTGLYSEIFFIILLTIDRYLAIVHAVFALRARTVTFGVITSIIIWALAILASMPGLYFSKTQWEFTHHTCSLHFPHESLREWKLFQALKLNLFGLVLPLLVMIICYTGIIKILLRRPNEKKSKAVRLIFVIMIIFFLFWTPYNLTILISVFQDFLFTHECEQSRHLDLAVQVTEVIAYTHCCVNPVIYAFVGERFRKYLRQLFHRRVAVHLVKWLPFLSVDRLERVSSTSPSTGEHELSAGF
As to the kind of experiment: CCR1 mediated cell migration. The class given is cell-based.

Assay [2] addresses T2, CCR1 expressed on NSO transfectants (human, UniProt P32246 1-355).
T2 construct: CCR1 transfectant of NSO cells; also called NSO-CCR1
T2 sequence: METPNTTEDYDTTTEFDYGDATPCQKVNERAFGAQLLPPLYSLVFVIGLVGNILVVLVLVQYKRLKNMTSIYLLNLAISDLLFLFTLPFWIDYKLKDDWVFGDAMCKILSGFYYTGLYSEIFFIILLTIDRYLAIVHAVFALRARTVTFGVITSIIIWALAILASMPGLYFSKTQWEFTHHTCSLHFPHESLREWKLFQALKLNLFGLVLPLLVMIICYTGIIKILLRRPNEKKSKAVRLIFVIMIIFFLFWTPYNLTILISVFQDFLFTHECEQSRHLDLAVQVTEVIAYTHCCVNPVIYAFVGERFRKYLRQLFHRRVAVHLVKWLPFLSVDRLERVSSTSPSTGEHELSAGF
As to the kind of experiment: competition against ^125I MIP-1α on NSO-CCR1 cells.

The target of assay [3] is T3, CCR1 expressed on HEK293 transfectants (human, UniProt P32246 1-355).
T3 construct: CCR1 cDNA transfected into HEK293 cells; also called HEK293-CCR1
T3 sequence: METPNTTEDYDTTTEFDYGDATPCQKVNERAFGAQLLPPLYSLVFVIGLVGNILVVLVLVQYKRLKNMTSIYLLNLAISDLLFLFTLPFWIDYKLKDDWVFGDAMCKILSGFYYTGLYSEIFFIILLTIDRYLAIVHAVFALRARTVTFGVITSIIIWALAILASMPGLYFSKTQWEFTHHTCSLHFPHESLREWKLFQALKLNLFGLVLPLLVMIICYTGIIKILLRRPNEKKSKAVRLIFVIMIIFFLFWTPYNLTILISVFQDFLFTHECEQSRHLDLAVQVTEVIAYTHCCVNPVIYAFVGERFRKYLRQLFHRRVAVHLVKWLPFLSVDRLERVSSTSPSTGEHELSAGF
In words: competition against ^125I MIP-1α on HEK293-CCR1 cells.

A further assay has as its target T4, CCR1 on monocytes (UniProt P32246 1-355).
T4 chain: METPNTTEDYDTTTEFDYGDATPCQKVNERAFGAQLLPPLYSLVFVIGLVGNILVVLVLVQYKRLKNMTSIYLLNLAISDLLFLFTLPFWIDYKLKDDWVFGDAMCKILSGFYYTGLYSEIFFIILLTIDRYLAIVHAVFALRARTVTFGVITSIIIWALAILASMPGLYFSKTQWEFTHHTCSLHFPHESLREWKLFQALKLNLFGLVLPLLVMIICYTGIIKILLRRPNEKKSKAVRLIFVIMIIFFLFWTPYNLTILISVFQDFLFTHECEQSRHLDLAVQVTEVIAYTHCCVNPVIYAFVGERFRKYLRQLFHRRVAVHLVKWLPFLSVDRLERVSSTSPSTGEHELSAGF
As to the kind of experiment: 125I MIP-1α competition binding on cells; monocytes.

Assay [4] addresses T5, CCR1 on THP-1 cells (acute monocytic leukemia) (UniProt P32246 1-355).
T5 chain: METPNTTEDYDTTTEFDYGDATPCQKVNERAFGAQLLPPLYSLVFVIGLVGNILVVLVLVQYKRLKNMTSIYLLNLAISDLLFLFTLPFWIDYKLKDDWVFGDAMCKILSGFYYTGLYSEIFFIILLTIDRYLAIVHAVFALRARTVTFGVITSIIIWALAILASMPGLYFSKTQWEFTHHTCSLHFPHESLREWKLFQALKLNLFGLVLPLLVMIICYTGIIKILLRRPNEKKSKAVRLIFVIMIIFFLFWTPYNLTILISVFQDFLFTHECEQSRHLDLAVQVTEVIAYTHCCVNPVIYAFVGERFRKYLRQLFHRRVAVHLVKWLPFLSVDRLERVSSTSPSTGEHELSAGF
As to the kind of experiment: 125I MIP-1α competition binding on cells; THP-1 cells.

Assay [5] has as its target T1, CCR1. As to the kind of experiment: Intracellular Ca2+ mobilization via CCR1. In kind it is cell-based. Also noted: endogenous in cells; host or cells: THP-1, monocytes, neutrophils, immature DC (endogenous); also HEK293-CCR1 and NSO-CCR1 transfectants.
The target in another assay is T6, CXCR4 on CEM-NKr cells (Homo sapiens, UniProt P61073).
T6 construct: host or cells: CEM-NKr (whole cells)
As to the kind of experiment: 125I SDF-1α competition binding on CEM-NKr cells. As to conditions: cold competitor array. The text has this: Binding Analysis. We employed our technique, DisplaceMax, to examine the global profile of chemokine ligand interaction with CXCR4 on MCF-7 and CEM-NKr cells. This technology employs expanded, efficiency-maximized radioligand binding using filtration protocols as described previously (Kledal T N, et al. Science 277:1656-1659 (1997); Dairaghi, et al. J Biol Chem 274:21569-74 (1999); Gosling, J. et al. J Immunol 164:2851-6 (2000)). […] Where indicated, anti-CXCR4 antibodies or isotype controls were included in the binding reactions. In these experiments cells were pre-incubated with the indicated concentration of antibody for 30 min at 4° C. prior to the addition of radiolabeled chemokine. Small molecules were included in some assays, where indicated. In these assays the compound was added to the plate to the indicated concentration followed by the addition of radiolabeled chemokine. All assays were then incubated for 3 hrs at 4° C. with gentle agitation. […] Scintillant (MicroScint 10, Packard) was added to the wells, and the filters were counted in a Packard Topcount scintillation counter. Data were analyzed and plotted using Prism (GraphPad Prism version 3.0a for Macintosh, GraphPad Software).

Assay [6] addresses T7, CXCR4 on MCF-7 cells (Homo sapiens).
T7 construct: host or cells: MCF-7 (whole cells)
In words: 125I SDF-1α competition binding on MCF-7 cells. As to conditions: cold competitor array. The text has this:
Binding Analysis. We employed our technique, DisplaceMax, to examine the global profile of chemokine ligand interaction with CXCR4 on MCF-7 and CEM-NKr cells. This technology employs expanded, efficiency-maximized radioligand binding using filtration protocols as described previously (Kledal T N, et al. Science 277:1656-1659 (1997); Dairaghi, et al. J Biol Chem 274:21569-74 (1999); Gosling, J. et al. J Immunol 164:2851-6 (2000)). […] Where indicated, anti-CXCR4 antibodies or isotype controls were included in the binding reactions. In these experiments cells were pre-incubated with the indicated concentration of antibody for 30 min at 4° C. prior to the addition of radiolabeled chemokine. Small molecules were included in some assays, where indicated. In these assays the compound was added to the plate to the indicated concentration followed by the addition of radiolabeled chemokine. All assays were then incubated for 3 hrs at 4° C. with gentle agitation. Following incubation in all binding assays, reactions were aspirated onto PEI-treated GF/B glass filters (Packard) using a cell harvester (Packard) and washed twice (25 mM HEPES, 500 mM NaCl, 1 mM CaCl2, 5 mM MgCl2, adjusted to pH 7.1). Scintillant (MicroScint 10, Packard) was added to the wells, and the filters were counted in a Packard Topcount scintillation counter. Data were analyzed and plotted using Prism (GraphPad Prism version 3.0a for Macintosh, GraphPad Software).

The target in assay [7] is CXCR4 as expressed on breast tumor cells (MCF-7, MDA MB-231) (human) (UniProt P61073). In words: homologous competition against ^125I I-TAC on MCF-7 cells, medium alone.
Assay [8] shares this target. As to the kind of experiment: homologous competition against ^125I I-TAC on MCF-7 cells pre-incubated with excess MIG (~175 nM).
Assay [9] deals with T8, CCR1 expressed on NSO transfectants (UniProt P32246 1-355).
T8 chain: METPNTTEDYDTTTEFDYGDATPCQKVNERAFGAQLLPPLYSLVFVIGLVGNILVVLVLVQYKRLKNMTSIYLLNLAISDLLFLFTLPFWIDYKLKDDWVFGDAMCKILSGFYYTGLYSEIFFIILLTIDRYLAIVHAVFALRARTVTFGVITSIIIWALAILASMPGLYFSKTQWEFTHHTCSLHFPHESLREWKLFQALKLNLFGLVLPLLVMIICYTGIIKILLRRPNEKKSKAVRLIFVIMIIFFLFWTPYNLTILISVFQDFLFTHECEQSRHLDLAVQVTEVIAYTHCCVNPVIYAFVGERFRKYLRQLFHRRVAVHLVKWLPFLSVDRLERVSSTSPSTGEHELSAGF
In words: 125I MIP-1α competition binding on cells; NSO-CCR1 cells.

Assay [10] deals with T9, CCR1 expressed on HEK293 transfectants (UniProt P32246 1-355).
T9 chain: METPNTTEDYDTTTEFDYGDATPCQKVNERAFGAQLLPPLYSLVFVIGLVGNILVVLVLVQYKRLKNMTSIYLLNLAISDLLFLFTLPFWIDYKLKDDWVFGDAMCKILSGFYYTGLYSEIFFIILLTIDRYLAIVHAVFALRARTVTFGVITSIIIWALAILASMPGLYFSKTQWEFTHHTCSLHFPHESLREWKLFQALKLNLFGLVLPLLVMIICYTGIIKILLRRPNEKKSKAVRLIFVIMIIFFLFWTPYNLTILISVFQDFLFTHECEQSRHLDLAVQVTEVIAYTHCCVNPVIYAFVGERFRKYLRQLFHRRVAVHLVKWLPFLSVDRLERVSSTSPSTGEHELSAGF
As to the kind of experiment: 125I MIP-1α competition binding on cells; HEK293-CCR1 cells.

Experimental findings from patent US7413866B2, “Compositions and methods for detecting and treating diseases and conditions related to chemokine receptors” (ChemoCentryx, Inc., priority 2001, dated 2008) are described below.

T7 sequence (P25106 whole entry): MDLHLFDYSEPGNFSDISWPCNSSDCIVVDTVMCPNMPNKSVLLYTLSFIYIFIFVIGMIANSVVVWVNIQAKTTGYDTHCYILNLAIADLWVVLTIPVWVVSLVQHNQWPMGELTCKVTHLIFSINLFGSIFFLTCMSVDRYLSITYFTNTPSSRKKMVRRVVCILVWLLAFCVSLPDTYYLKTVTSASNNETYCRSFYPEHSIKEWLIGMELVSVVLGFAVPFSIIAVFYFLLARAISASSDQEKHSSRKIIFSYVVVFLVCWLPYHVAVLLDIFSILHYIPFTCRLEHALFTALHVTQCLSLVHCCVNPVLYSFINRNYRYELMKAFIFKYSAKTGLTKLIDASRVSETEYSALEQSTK
T6 sequence (P61073 whole entry): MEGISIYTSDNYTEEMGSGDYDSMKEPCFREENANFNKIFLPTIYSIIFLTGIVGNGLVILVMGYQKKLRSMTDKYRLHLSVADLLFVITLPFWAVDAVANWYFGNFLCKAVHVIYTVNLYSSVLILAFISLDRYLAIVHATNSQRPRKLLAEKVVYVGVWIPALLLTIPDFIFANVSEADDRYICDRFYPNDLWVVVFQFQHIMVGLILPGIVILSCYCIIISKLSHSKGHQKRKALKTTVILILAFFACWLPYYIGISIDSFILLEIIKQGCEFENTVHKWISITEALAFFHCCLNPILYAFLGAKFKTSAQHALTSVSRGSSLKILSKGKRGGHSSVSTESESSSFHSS

B1: CKβ8 (1-99) (ligand)
chain: RVTKDAETEFMMSKLPLENPVLLDRFHATSADCCISYTPRSIPCSLLESYFETNSECSKPGVIFLTKKGRRFCANPSDKQVQVCMRMLKLDTRIKTRKN
notes: The numbers 1-99 count on the mature chemokine, not on the precursor; also called CCL23 (99-amino acid form)
In general, IC50 refers to the point on the concentration scale where inhibition reaches its midpoint. B1: the “induction of cell migration, neutrophils” value with CCR1 [1] (CCR1 expressed on neutrophils) is “does not induce cell migration”. In the assay with CCR1 [1] (THP-1 cells, monocytes and immature DC), the “induction of CCR1 mediated cell migration, THP-1 cells, monocytes and immature DC” value is given as “can induce CCR1 mediated cell migration”. In addition, the IC50 in assay [2] is 3.9 nM; in assay [3], 64 nM; with CCR1 on monocytes, 10.3 nM; in assay [4], 6.3 nM. The “Ca2+ mobilization in HEK293-CCR1, THP-1 and monocytes” value with CCR1 [5] is on record as “able to mobilize Ca2+”. For the same molecule, the “Ca2+ mobilization in neutrophils” value in the assay with CCR1 [5] was “do not mobilize Ca2+”.

B2: HHV8 vMIP-II: viral recombinant chemokine (protein)
chain: LGASWHRPDKCCLGYQKRPLPQVLLSSWYPTSQLCSKPGVIFLTKRGRQVCADKSKDWVKKLMQQLPVTAR
Turning to B2, the “DisplaceMax displacement of 125I SDF-1α on CEM-NKr, affinity class” value with CXCR4 on CEM-NKr cells is on record as “potential moderate affinity”.

B3: mI-TAC: murine recombinant chemokine I-TAC (protein)
chain: FLMFKQGRCLCIGPGMKAVKMAEIEKASVIYPSNGCDKVEVIVTMKAHKRQRCLDPRSKQARLIMQAIEKKNFLRRQNM
Take B3: the “DisplaceMax displacement of 125I SDF-1α on MCF-7, affinity class” value in [6] was “high affinity”.

B4: human I-TAC (ligand, UniProt O14625 22-94, looked up)
chain: FPMFKRGRCLCIGPGVKAVKVADIEKASIMYPSNNCDKIEVIITLKENKGQRCLNPKSKQARLIIKKVERKNF
modifications: 125I label where used as the radioligand
Take B4: the IC50 in assay [7] and in [8] was 1 nM in each case.

B5: MIP-1α (ligand)
chain: ADTPTACCFSYTSRQIPQNFIADYFETSSQCSKPGVIFLTKRSRQVCADPSEEWVQKYVSDLELSA
modifications: also: 125I label where used as radioligand
For B5, the 50% inhibitory concentration (IC50) came to 0.27 nM with CCR1 on monocytes, 0.17 nM in assay [4], 0.15 nM in assay [9] and 0.54 nM in assay [10].

B6: MIP-1α: CC chemokine, CCR1 ligand (protein)
chain: ADTPTACCFSYTSRQIPQNFIADYFETSSQCSKPGVIFLTKRSRQVCADPSEEWVQKYVSDLELSA
Regarding B6, in the assay with CCR1 [5], the “Ca2+ mobilization in HEK293-CCR1, THP-1 and monocytes” value was “able to mobilize Ca2+”; the “Ca2+ mobilization in neutrophils” value is “do not mobilize Ca2+”.
